Patent US20240343820A1
Numbering of substitutions follows the chain as printed.

B1: 24C7 (antibody, V domains shown)
VH: QVQLQQSGPELVKPGASVKISCKASGYSFTSYYIHWVKQRPGQGLEWIGWIYPGSGNTKYNEKFKGKATLTADTSSSTAYMQLSSLTSEDSAVYYCARCVLLDYFDYWGQGTTLTVSS
VL: DIQMTQSPSSLSASLGERVSLTCRASQEISGYLSWLQQKPDGTIKRLIYAASTLDSGVPKRFSGSRSGSDYSLTISSLESEDFADYYCLQYASYPYTFGGGTKLEIK
B2: 25F10 (antibody, V domains shown)
VH: QVHLQQSGPELVKPGASVKISCKASGYSFTSYYIHWVKQRPGQGLEWIGWIYPRSGNTNYNEKFKDKATLAADTSSSAAYMQLSSLTSEDSAVYYCGRSDFYYGSDYWGQGTTLTVSS
VL: B1 VL with S34G, K60R, I75F, Y96W
B3: 23C11 (antibody, V domains shown)
VH: QVQLQQPGAELVRPGSSVKLSCKASGYTFTSYWMHWVKQRPIQGLEWIGNIDPSDSETHYNQKFKDKATLTVDKSSSTAYMQLSSLTSEDSAVYYCARAGRVFYYAMDYWGQGTSVTVSS
VL: DIQMTQTTSSLSASLGDRVTISCRASQDISNYLNWYQQKPDGTVKLLIYYTSRLHSGVPSRFSGSGSGTDYSLTISNLEQEDIATYFCQQGNTLYTFGGGTKLEIK
B4: 23E1 (antibody, V domains shown)
VH: EVQLQQSGPVLVKPGPSVKISCKASGFTFTDYYMHWVKQSHGKSLEWIGLVYPYNGGTSYNQKFKGKATLTVDTSSSTAYMELNSLTSEDSAVYYCARRGQRVWYFDVWGTGTTVTVSS
VL: DIQMTQSPSSLSASLGGKVTITCKASQDINKYIAWYQHKPGKGPRLLIHYTSTLQPGIPSRFSGSGSGRDYSFSISNLEPEDIATYYCLQYDNLYTFGGGTKLEIK
B5: 25B2 (antibody, V domains shown)
VH: QIQLVQSGPELKKPGETVKISCKASGYTFTTYGMSWVKQAPGKGLKWMGWINTYSGVPTYADDFKGRFAFSLETSASTAYLQINNLKNEDTATYFCARTYYGNYFDYWGQGTTLTVSS
VL: B4 VL
B6: 29F8 (antibody, V domains shown)
VH: B5 VH with T91S, T99Y, N103S, Y104N, F105Y
VL: DIQMTQSPASLSASVGETVTITCRASENIYSYLAWYQQKQGKSPQLLVNNAKTLAEGVPSRFSGSGSGTQFSLKINSLQPEDFGSYYCQHHYGSPPTFGSGTKLEIK
B7: 29F1 (antibody, V domains shown)
VH: B5 VH with T99F, N103S, Y104S
VL: B6 VL with N49Y, S94T, P96L, S100A, I106L
B8: 24C12 (antibody, V domains shown)
VH: QVQLQQSGAELMKPGASVKLSCKATGHTFTGYWIEWVKQRPGHGLEWIGEILPGSGSTNYNEKFKGKATFTADTSSNTAYMQLSSLTTEDSAIYYCAREGFAYWGQGTLVTVSA
VL: DIVMTQSHKFMSTSVGDRVSITCKASQDVGIAVAWYQQKPGQSPKLLIYWASTRHTGVPDRFTGSGSGTDFTLTISNVQSEDLADYFCQQYSSYPYTFGGGTKLEIK
B9: 22H5 (antibody, V domains shown)
VH: DVQLQESGPGMVKPSQSLSLTCTVTGYSITSGYDWHWIRHFPGNKLEWMGYISYSGSTNYNPSLKSRISITHDTSKNHFFLKLNSVTTEDTATYYCAREGYSNYFDSWGQGTTLTVSS
VL: SIVMTQTPKFLLVSAGDRVTITCKASQSVSNDVAWYQQKPGQSPKLLIFYASNRYTGVPDRFTGSGYGTDFTFTISTVQAEDLAVYFCQQDYSSPLAFGAGTKLELK

Molecular target: anti-CD20 scFv-14
Assay: Octet (BLI) equilibrium binding, hybridoma supernatant; antigen format not stated

Compared with B1, B2 is 960-fold lower in Kd: 3.9 nM for the first, 0.00408 nM for the second.

B3 and B4 are within 1.5-fold of each other in Kd: 3.72 nM for the first, 3.28 nM for the second.

Going from B5 to B6, the Kd falls from 0.382 nM to 0.00131 nM (290-fold). The second binds more tightly here.

First: B7
Second: B8
The Kd of the first is 39-fold higher: 0.0534 nM for the first, 0.00138 nM for the second.

With B9 the Kd was 0.633 nM.
